Assay results published in patent US20250346646A1, “COMPOUNDS USEFUL TO TREAT METABOLIC DISORDERS” (President and Fellows of Harvard College, priority 2016, published 2025).

Columns and labels:
glucagon/aP2 complex = glucagon/aP2 complex (Homo sapiens, UniProt P01275+P15090); test: Blitz binding to tethered aP2 in glucagon plus mAb solution; settings: biotinylated aP2 on streptavidin probes
Experimental: Binding affinity studies were performed using a Blitz instrument (Pall Life Sciences, Menlo Park, CA). Biotinylated aP2 was attached to streptavidin probes.

aP2 = aP2 (Homo sapiens, UniProt P15090); test: Paranaric acid (lipid) binding to aP2; settings: vs IgG control antibody, over pH
aP2, sequence (P15090 whole entry): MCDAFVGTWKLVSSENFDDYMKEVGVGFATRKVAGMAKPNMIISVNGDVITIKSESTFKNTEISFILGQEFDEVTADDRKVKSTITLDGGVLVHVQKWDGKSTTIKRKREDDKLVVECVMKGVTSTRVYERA
Experimental: FIG. 10F is a line graph showing paranaric acid binding to aP2 (relative fluorescence) vs. pH in the presence of IgG control antibody (circles) or CA33 antibody (squares).
In further analysis, epitope identification based on hydrogen-deuterium exchange mass spectrometry experiments, for example, as described by Pandit et al. (2012) J. Mol. Recognit. […] Co-crystallization of the Fab fragments of CA33 and H3 with aP2 (FIG. 10D) was then conducted. […] Despite the partial blocking of H3 by CA33, we observed that there is in fact no direct overlap of their epitopes. Instead, the significant movement of the region around aP2 Phe58 may partially block binding of one antibody by the other in the competition experiments. In addition, the low affinity of the CA33 Fab can be explained by the crystal structure. Unusually, only one amino acid in the heavy chain of CA33 makes a contact with aP2, and the majority of the contacts are through the light chain (FIGS. 10D and 10E). In contrast, H3-aP2 contact is more conventional, with both Fab chains interacting with aP2. […] H3 does bind directly to the ‘lid’ but has limited activity. Binding of CA33 to lipid-bound aP2 or lipid-free aP2 was also examined using biochemical analysis (Biacore). CA33 binds to both lipid-bound aP2 and lipid-free aP2 with the following affinities: […]

[1] = tested on: HFD-induced obese aP2−/− mice; test: CA33 treatment of HFD-induced obese aP2−/− mice; type: in vivo, mouse
Experimental: FIG. 11A is a bar graph showing fasting blood glucose (mg/dL) in HFD-induced obese aP2−/− mice before (open bars) and after CA33 antibody or vehicle treatment for three weeks (solid bars).
The test was performed after 2 weeks of vehicle (triangles) or CA33 antibody treatment (squares) in aP2−/− mice.
Animal care and experimental procedures were performed with approval from animal care committees of Harvard University. Male mice (leptin-deficient (ob/ob) and diet induced obese (DIO) mice with C57BL/6J background) were purchased from The Jackson Laboratory (Bar Harbor, ME) and kept on a 12-hour light/dark cycle. DIO mice with C57BL/6J background were maintained on high-fat diet (60% kcal fat, Research Diets, Inc., D12492i) for 12 to 15 weeks before starting treatment except in clamp studies, for which they were on HFD for 20 weeks. Leptin-deficient (ob/ob) mice were maintained on regular chow diet (RD, PicoLab 5058 Lab Diet). Animals used were 18 to 31 weeks of age for dietary models and 9 to 12 weeks of age for the ob/ob model. In all experiments, at least 7 mice in each group were used, unless otherwise stated in the text. The mice were treated with 150 μl PBS (vehicle) or 1.5 mg/mouse (˜33 mg/kg) anti-aP2 monoclonal antibody in 150 μl PBS by twice weekly subcutaneous injections for 3 to 5 weeks. Before and after the treatment, blood samples were collected from the tail after 6 hours of daytime food withdrawal. Body weights were measured weekly in the fed state. Blood glucose levels were measured weekly after 6 hours of food withdrawal or after 16 hours overnight fast. After 2 weeks of treatment, glucose tolerance tests were performed by intraperitoneal glucose injections (0.75 g/kg for DIO, 0.5 g/kg for ob/ob mice). After 3 weeks of treatment, insulin tolerance tests were performed in DIO mice by intraperitoneal insulin injections (0.75 IU/kg). After 5 weeks of treatment, hyperinsulinemic-euglycemic clamp experiments were performed in DIO mice as previously described (Furuhashi et al., (2007) Nature 447, 959-965; Maeda et al., (2005) Cell metabolism 1, 107-119). […]

[2] = target: T1, glucagon/aP2 complex in wild-type serum (Mus musculus, UniProt P04117); test: Co-immunoprecipitation of glucagon and aP2 from serum; settings: pre-incubation of wild-type serum with antibody
T1 construct: from tissue; host or cells: serum of wild-type mice
T1 sequence (P04117 1-132): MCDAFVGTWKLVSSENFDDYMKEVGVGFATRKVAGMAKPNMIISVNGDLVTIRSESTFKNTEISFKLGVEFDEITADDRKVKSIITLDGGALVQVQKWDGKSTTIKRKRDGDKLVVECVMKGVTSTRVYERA

[3] = tested on: diet induced obese (DIO) mice; test: Antibody treatment of obese mice on high-fat diet (fasting glucose, GTT, ITT); type: in vivo, mouse; settings: obese mice on HFD
Experimental: FIG. 9B is bar graph showing blood glucose levels (mg/dL) at week 0 (open bars) or week 4 (solid bars) in obese mice on a high-fat diet (HFD) treated with vehicle or anti-aP2 monoclonal antibodies CA33, CA13, CA15, CA23, or H3. Blood glucose levels were measured after 6 hours of day-time food withdrawal. *p<0.05, **p<0.01.
The test was performed after 2 weeks of treatment in obese mice on HFD with vehicle (diamonds) or anti-aP2 monoclonal antibodies (0.75 g/kg glucose)(CA33; squares)(CA15; triangles). *p<0.05.
FIG. 12A is a line graph showing glucose levels (mg/dL) vs. time (minutes) in a glucose tolerance test (GTT) following two weeks of selective antibody treatment using high affinity antibodies (CA13, CA15, CA23, and H3) versus vehicle control in high fat diet fed mice.
FIG. 12B is a line graph showing glucose levels (mg/dl) vs. time (minutes) in an insulin tolerance test (ITT) following three weeks of selective antibody treatment using high affinity antibodies (CA13, CA15, CA23, and H3) versus vehicle control in high fat diet fed mice.
Animal care and experimental procedures were performed with approval from animal care committees of Harvard University. Male mice (leptin-deficient (ob/ob) and diet induced obese (DIO) mice with C57BL/6J background) were purchased from The Jackson Laboratory (Bar Harbor, ME) and kept on a 12-hour light/dark cycle. […] Body weights were measured weekly in the fed state. Blood glucose levels were measured weekly after 6 hours of food withdrawal or after 16 hours overnight fast. […]
Twenty-four hours post transfection a bolus feed was added and the temperature was reduced to 32° C. and maintained for the duration of the culture period (12-14 days). […] The UV absorbance peak at A280 nm was collected during elution from the column using 0.1M sodium citrate pH 3.4 elution buffer and then neutralized to pH 7.4 by addition of 2M Tris-HCl pH 8.5. […]

glucagon/aP2 complex, sequence (P15090 whole entry): as the sequence (P15090 whole entry) above
glucagon/aP2 complex, sequence (P01275 53-81 limits assumed): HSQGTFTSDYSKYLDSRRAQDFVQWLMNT

B1: CA33: low-affinity anti-aP2 monoclonal antibody, rabbit-mouse hybrid, produced and purified by UCB; VL Seq. ID 28, VH Seq. ID 41 (antibody, V domains shown)
VH: QSVEESGGRLVTPGTPLTLTCTVSGFSLSTYYMSWVRQAPGKGLEWIGIIYPSGSTYCASWAKGRFTISKASTTVDLKITSPTTEDTATYFCARPDNDGTSGYLSGFGLWGQGTLVTVSS
VL: DVVMTQTPASVSEPVGGTVTIKCQASEDISRYLVWYQQKPGQPPKRLIYKASTLASGVPSRFKGSGSGTDFTLTISDLECDDAATYYCQCTYGTYAGSFFYSFGGGTEVVVE
modifications: Rabbit Ab 909 VH region; Rabbit Ab 909 VL-region
glucagon/aP2 complex
  Binding to the glucagon/aP2 complex: strong binding
aP2
  Effect on lipid (paranaric acid) binding to aP2: not substantially altered
[1]; aP2−/− mice fed a HFD
  Weight: failed to induce any change
[1]; aP2−/− mice fed a HFD, three weeks treatment
  Fasting glucose: failed to induce any change
[1]; obese aP2−/− mice, after 2 weeks of treatment
  Glucose tolerance (GTT): did not affect glucose tolerance
[2]
  Co-immunoprecipitation of glucagon and aP2: prevents co-immunoprecipitation
[3]; 33 mg/kg s.c. twice weekly, week 4 vs week 0, 6 hours food withdrawal
  Fasting blood glucose: significantly decreased
[3]; after 2 weeks of treatment, 0.75 g/kg glucose
  Glucose tolerance (GTT): significantly improved glucose tolerance
[3]; after 3 weeks of treatment
  Insulin sensitivity (insulin tolerance test): markedly improved insulin sensitivity
